Laboratory results reported in patent publication CN106117359A (UNIV SUN YAT SEN, dated 2016).

B1: 抗CD3单域抗体 C12 (sdAb clone C12) (VHH)
VHH: QVQLQESGGGLVQPGGSLRLSCAASGSMYRPNTMGWHRQAPGEQRKLVARITSDGNTNYADSVKGRFTISRDNAKNTVHLEMNSLQPEDTAVYYCYYSDFVNLRGFWGQGTQVTVSS
notes: Llama sdAb from a phage display library; Tested as unpurified sdAb-SASA protein in E. coli expression medium or culture supernatant; 1 in its text; also called sdAb-SASA; not shown: SASA fusion partner from the pFASEBA vector (sdAb-SASA protein in expression medium)

Key:
[1] = molecular target: CD3 on Jurkat细胞 (Jurkat靶标细胞) (human) (UniProt P07766); experiment: flow cytometry (FACSCalibur), culture supernatant on Jurkat cells; negative control sdAb
[2] = molecular target: CD3 on Jurkat细胞 (Jurkat靶标细胞) (human) (UniProt P07766); experiment: flow cytometry (FACSCalibur), culture supernatant on Jurkat cells
CD3-His蛋白(MP-5) = molecular target: T1, CD3-His蛋白(MP-5) (human, UniProt P07766 23-126); experiment: BLI (Octet RED96) off-rate screening; sdAb-SASA from expression medium captured on BSA-coated biosensor, CD3 at 100 nM in solution, 30°C, 1:1 Langmuir model
T1 construct: also called CD3蛋白; not shown: His tag
T1 sequence (P07766 23-126): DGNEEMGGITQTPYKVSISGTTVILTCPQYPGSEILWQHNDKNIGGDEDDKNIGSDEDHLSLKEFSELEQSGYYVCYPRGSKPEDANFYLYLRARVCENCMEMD

Molecule	MFI [1] [MFI]	MFI [2] [MFI]	koff (CD3-His蛋白(MP-5)) [s⁻¹]
NC-sdAb (相同形式的非相关性sdAb) (VHH)	115	–	–
B1	–	2330	6.61e-05
